This is an account of results in article PMC9407465.

A short description of data set [1]: Bcl2 promoter luciferase, HEK293T. Particulars: WT Gli2.
Data set [2] in a line: Gli2 level in primary GNPs. Particulars: glycan lost; control: untreated GNPs.
Data set [3] can be described thus: IP and acetylation immunoblot.
A short description of data set [4]: IP immunoblot from P30 cerebellum. Particulars: glycan lost; control: SmoM2Atoh1 mice.
A further data set can be described thus: GLI2 level in Daoy cells. Particulars: glycan lost; control: DMSO.

B1: Gli2 (GLI family zinc finger 2): OSMI-1 (protein)
parent chain: METSAPAPALEKKEAKSGLLEDSSFPDPGKKACPLAVAAAVAAHGVPQQLLPAFHAPLPIDMRHQEGRYHYDPHSVHSVHGPPTLSGSPVISDISLIRLSPHPAGPGESPFSAHHPYVNPHMEHYLRSVHSSPTLSMISAARGLSPADVAHEHLKERGLFSLAAPGTNPSDYYHQMTLMASHPTPYGDLLMQSGGAASAPHLHDYLNPVDASRFSSPRVTPRLSRKRALSISPLSDASLDLQRMIRTSPNSLVAYINNSRSSSAASGSYGHLSAGALSPAFTFPHPINPVAYQQILSQQRGLGSAFGHTPPLIQPSPTFLAQQPMTLTSISTMPTQLSSSSSNCLNDANQNKQNSESAVSSTVNPITIHKRSKVKTEAEGLRPASPLGLTQEQLADLKEDLDRDDCKQEAEVVIYETNCHWADCTKEYDTQEQLVHHINNEHIHGEKKEFVCRWQACTREQKPFKAQYMLVVHMRRHTGEKPHKCTFEGCSKAYSRLENLKTHLRSHTGEKPYVCEHEGCNKAFSNASDRAKHQNRTHSNEKPYICKIPGCTKRYTDPSSLRKHVKTVHGPDAHVTKKQRNDVHVRAPLLKENGDNEASAEPGGRGPEESVEASSTSHTVEDCLHIKAIKTESSGLCQSSPGAQSSCSSEPSPLGSAPNNDSGMEMPGTGPGSLGDLTALADTCPGADTSALAAPSTGGLQLRKHMSTVHRFEQLKREKLKSLKDSCSWAGPAPHTRNTKLPPLPVNGSVLENFNNTGGGGPAGLLPSQRLPELTEVTMLSQLQERRDSSTSTMSSAYTVSRRSSGISPYFSSRRSSEASPLGGLRPHNASSADSYDPISTDASRRSSEASQCSGGGPGLLNLTPAQQYNLRAKYAAATGGPPPTPLPGLDRVSLRTRLALLDAPERALPGACPHPLGPRRGSDGPTYSHGHGHGYAGAAPAFPHEGPNSSTRRASDPVRRPDPLILPRVQRFHSTHNMNPGSLPPCADRRGLHVQSHPSVDSNLTRNAYSPRPPSINENVVMEAVAAGVDGPGLECDLGLVEDELVLPDDVVQYIKAHTGGTLDDGIRQGYPTEGTGFPENSKLPSPGLQGHRRLAAADSNMGPSAPGLGGCQLSYSPSSNLNKSNMPVQWNEVSSGTVDALPTQVKPPPFPHSNLAVVQQKPAFGQYPGYNPQSVQSSSGGLDSTQPHLQLRGAPSASRGSYTQQPRQPAAGSQCLGMSAAMSPQASYSQAHPQLSPNIVSGSLNQFSPSCSNMAAKPSHLGLPQQMEVVPNATIMNGHQREHGVPNSSLAAVSQPHPVLSYPQQDSYQQGSNLLSSHQPGFMESQQNAGFGLMQPRPPLEPNTASRHRGVRSGQQQLYARTTGQAMVTSANQETAEAMPKGPAGTMVSLAPQPSQDTGRAQDQNTLYYYGQIHMYEQNGGCPAVQPQPPQPQACSDSIQPEPLPSPGVNQVSSTVDSQLLEPPQIDFDAIMDDGDHSSLFSGALSPTLLHNLSQNSSRLTTPRNSLTLPSIPAGISNMAVGDMSSMLTSLAEESKFLNMMT
In the case of B1, the “other: transcriptional activity” value in data set [1] (glycan lost, control: DMSO) is given as “decreases”. Also, in data set [2], the expression_or_secretion entry was “decreases”. In addition, the “other: Gli2 acetylation” value in data set [3] (glycan lost, control: untreated, WT Gli2) is given as “increases”.

B2: Gli2 (GLI family zinc finger 2): OGT overexpression (protein)
parent chain: B1 parent chain
B2: the “other: transcriptional activity” value in data set [1] (glycan gained, control: pEGFP-C1 vector) is on record as “increases”. The “other: Gli2 acetylation” value in data set [3] (glycan gained, control: without OGT overexpression) is “decreases”.

B3: Gli2 (GLI family zinc finger 2): SmoM2Atoh1;OGTAtoh1 (OGT knockout in GNPs) (protein)
parent chain: B1 parent chain
Turning to B3, the “other: Gli2 acetylation” value in data set [4] was “increases”.

B4: human GLI2: OSMI-1 (protein)
parent chain: METSASATASEKQEAKSGILEAAGFPDPGKKASPLVVAAAAAAAVAAQGVPQHLLPPFHAPLPIDMRHQEGRYHYEPHSVHGVHGPPALSGSPVISDISLIRLSPHPAGPGESPFNAPHPYVNPHMEHYLRSVHSSPTLSMISAARGLSPADVAQEHLKERGLFGLPAPGTTPSDYYHQMTLVAGHPAPYGDLLMQSGGAASAPHLHDYLNPVDVSRFSSPRVTPRLSRKRALSISPLSDASLDLQRMIRTSPNSLVAYINNSRSSSAASGSYGHLSAGALSPAFTFPHPINPVAYQQILSQQRGLGSAFGHTPPLIQPSPTFLAQQPMALTSINATPTQLSSSSNCLSDTNQNKQSSESAVSSTVNPVAIHKRSKVKTEPEGLRPASPLALTQGQVSGHGSCGCALPLSQEQLADLKEDLDRDDCKQEAEVVIYETNCHWEDCTKEYDTQEQLVHHINNEHIHGEKKEFVCRWQACTREQKPFKAQYMLVVHMRRHTGEKPHKCTFEGCSKAYSRLENLKTHLRSHTGEKPYVCEHEGCNKAFSNASDRAKHQNRTHSNEKPYICKIPGCTKRYTDPSSLRKHVKTVHGPDAHVTKKQRNDVHLRTPLLKENGDSEAGTEPGGPESTEASSTSQAVEDCLHVRAIKTESSGLCQSSPGAQSSCSSEPSPLGSAPNNDSGVEMPGTGPGSLGDLTALDDTPPGADTSALAAPSAGGLQLRKHMTTMHRFEQLKKEKLKSLKDSCSWAGPTPHTRNTKLPPLPGSGSILENFSGSGGGGPAGLLPNPRLSELSASEVTMLSQLQERRDSSTSTVSSAYTVSRRSSGISPYFSSRRSSEASPLGAGRPHNASSADSYDPISTDASRRSSEASQCSGGSGLLNLTPAQQYSLRAKYAAATGGPPPTPLPGLERMSLRTRLALLDAPERTLPAGCPRPLGPRRGSDGPTYGHGHAGAAPAFPHEAPGGGARRASDPVRRPDALSLPRVQRFHSTHNVNPGPLPPCADRRGLRLQSHPSTDGGLARGAYSPRPPSISENVAMEAVAAGVDGAGPEADLGLPEDDLVLPDDVVQYIKAHASGALDEGTGQVYPTESTGFSDNPRLPSPGLHGQRRMVAADSNVGPSAPMLGGCQLGFGAPSSLNKNNMPVQWNEVSSGTVDALASQVKPPPFPQGNLAVVQQKPAFGQYPGYSPQGLQASPGGLDSTQPHLQPRSGAPSQGIPRVNYMQQLRQPVAGSQCPGMTTTMSPHACYGQVHPQLSPSTISGALNQFPQSCSNMPAKPGHLGHPQQTEVAPDPTTMGNRHRELGVPDSALAGVPPPHPVQSYPQQSHHLAASMSQEGYHQVPSLLPARQPGFMEPQTGPMGVATAGFGLVQPRPPLEPSPTGRHRGVRAVQQQLAYARATGHAMAAMPSSQETAEAVPKGAMGNMGSVPPQPPPQDAGGAPDHSMLYYYGQIHMYEQDGGLENLGSCQVMRSQPPQPQACQDSIQPQPLPSPGVNQVSSTVDSQLLEAPQIDFDAIMDDGDHSSLFSGALSPSLLHSLSQNSSRLTTPRNSLTLPSIPAGISNMAVGDMSSMLTSLAEESKFLNMMT
For the protein B4, in “GLI2 level in Daoy cells”, the expression_or_secretion result is given as “decreases”.
